Laboratory results published in article PMC4944284, “Identification of a Functionally Relevant Adeno-Associated Virus Rep68 Oligomeric Interface” (Journal of Virology, 2016).

Assays:
[1] = biological target: the molecule itself; experiment: AUC; sedimentation velocity, protein 10 uM, 25 mM Tris-HCl pH 8.0, 200 mM NaCl, 25,000 rpm, 20°C, SEDFIT (Fig. 1B, C)
[2] = biological target: the molecule itself; experiment: AUC; sedimentation velocity, all proteins at 1 mg/ml, else as in Materials and Methods (25 mM Tris-HCl pH 8.0, 200 mM NaCl, 20°C) (Fig. 2D)

B1: Rep68* (AAV2 Rep68 C151S) (enzyme)
chain: MPGFYEIVIKVPSDLDGHLPGISDSFVNWVAEKEWELPPDSDMDLNLIEQAPLTVAEKLQRDFLTEWRRVSKAPEALFFVQFEKGESYFHMHVLVETTGVKSMVLGRFLSQIREKLIQRIYRGIEPTLPNWFAVTKTRNGAGGGNKVVDESYIPNYLLPKTQPELQWAWTNMEQYLSACLNLTERKRLVAQHLTHVSQTQEQNKENQNPNSDAPVIRSKTSARYMELVGWLVDKGITSEKQWIQEDQASYISFNAASNSRSQIKAALDNAGKIMSLTKTAPDYLVGQQPVEDISSNRIYKILELNGYDPQYAASVFLGWATKKFGKRNTIWLFGPATTGKTNIAEAIAHTVPFYGCVNWTNENFPFNDCVDKMVIWWEEGKMTAKVVESAKAILGGSKVRVDQKCKSSAQIDPTPVIVTSNTNMCAVIDGNSTTFEHQQPLQDRMFKFELTRRLDHDFGKVTKQEVKDFFRWAKDHVVEVEHEFYVKKGGAKKRPAPSDADISEPKRVRESVAQPSTSDAEASINYADRLARGHSL
notes: source: E. coli BL21(DE3), purified (Ni column, gel filtration on Superdex 200)
Question: Does B1 bind [1]?
Answer: binds

B2: Rep68*-N254A (enzyme)
chain: MPGFYEIVIKVPSDLDGHLPGISDSFVNWVAEKEWELPPDSDMDLNLIEQAPLTVAEKLQRDFLTEWRRVSKAPEALFFVQFEKGESYFHMHVLVETTGVKSMVLGRFLSQIREKLIQRIYRGIEPTLPNWFAVTKTRNGAGGGNKVVDESYIPNYLLPKTQPELQWAWTNMEQYLSACLNLTERKRLVAQHLTHVSQTQEQNKENQNPNSDAPVIRSKTSARYMELVGWLVDKGITSEKQWIQEDQASYISFAAASNSRSQIKAALDNAGKIMSLTKTAPDYLVGQQPVEDISSNRIYKILELNGYDPQYAASVFLGWATKKFGKRNTIWLFGPATTGKTNIAEAIAHTVPFYGCVNWTNENFPFNDCVDKMVIWWEEGKMTAKVVESAKAILGGSKVRVDQKCKSSAQIDPTPVIVTSNTNMCAVIDGNSTTFEHQQPLQDRMFKFELTRRLDHDFGKVTKQEVKDFFRWAKDHVVEVEHEFYVKKGGAKKRPAPSDADISEPKRVRESVAQPSTSDAEASINYADRLARGHSL
notes: as for B1
Question: Does B2 bind [2]?
Answer: binds

B3: Rep68*-Y224P (enzyme)
chain: MPGFYEIVIKVPSDLDGHLPGISDSFVNWVAEKEWELPPDSDMDLNLIEQAPLTVAEKLQRDFLTEWRRVSKAPEALFFVQFEKGESYFHMHVLVETTGVKSMVLGRFLSQIREKLIQRIYRGIEPTLPNWFAVTKTRNGAGGGNKVVDESYIPNYLLPKTQPELQWAWTNMEQYLSACLNLTERKRLVAQHLTHVSQTQEQNKENQNPNSDAPVIRSKTSARPMELVGWLVDKGITSEKQWIQEDQASYISFNAASNSRSQIKAALDNAGKIMSLTKTAPDYLVGQQPVEDISSNRIYKILELNGYDPQYAASVFLGWATKKFGKRNTIWLFGPATTGKTNIAEAIAHTVPFYGCVNWTNENFPFNDCVDKMVIWWEEGKMTAKVVESAKAILGGSKVRVDQKCKSSAQIDPTPVIVTSNTNMCAVIDGNSTTFEHQQPLQDRMFKFELTRRLDHDFGKVTKQEVKDFFRWAKDHVVEVEHEFYVKKGGAKKRPAPSDADISEPKRVRESVAQPSTSDAEASINYADRLARGHSL
notes: as for B1
Question: Does B3 bind [1]?
Answer: binds

B4: Rep68*-Y224D (enzyme)
chain: MPGFYEIVIKVPSDLDGHLPGISDSFVNWVAEKEWELPPDSDMDLNLIEQAPLTVAEKLQRDFLTEWRRVSKAPEALFFVQFEKGESYFHMHVLVETTGVKSMVLGRFLSQIREKLIQRIYRGIEPTLPNWFAVTKTRNGAGGGNKVVDESYIPNYLLPKTQPELQWAWTNMEQYLSACLNLTERKRLVAQHLTHVSQTQEQNKENQNPNSDAPVIRSKTSARDMELVGWLVDKGITSEKQWIQEDQASYISFNAASNSRSQIKAALDNAGKIMSLTKTAPDYLVGQQPVEDISSNRIYKILELNGYDPQYAASVFLGWATKKFGKRNTIWLFGPATTGKTNIAEAIAHTVPFYGCVNWTNENFPFNDCVDKMVIWWEEGKMTAKVVESAKAILGGSKVRVDQKCKSSAQIDPTPVIVTSNTNMCAVIDGNSTTFEHQQPLQDRMFKFELTRRLDHDFGKVTKQEVKDFFRWAKDHVVEVEHEFYVKKGGAKKRPAPSDADISEPKRVRESVAQPSTSDAEASINYADRLARGHSL
notes: as for B1
Question: Does B4 bind [1]?
Answer: binds

B5: Rep68*-Y224F (enzyme)
chain: MPGFYEIVIKVPSDLDGHLPGISDSFVNWVAEKEWELPPDSDMDLNLIEQAPLTVAEKLQRDFLTEWRRVSKAPEALFFVQFEKGESYFHMHVLVETTGVKSMVLGRFLSQIREKLIQRIYRGIEPTLPNWFAVTKTRNGAGGGNKVVDESYIPNYLLPKTQPELQWAWTNMEQYLSACLNLTERKRLVAQHLTHVSQTQEQNKENQNPNSDAPVIRSKTSARFMELVGWLVDKGITSEKQWIQEDQASYISFNAASNSRSQIKAALDNAGKIMSLTKTAPDYLVGQQPVEDISSNRIYKILELNGYDPQYAASVFLGWATKKFGKRNTIWLFGPATTGKTNIAEAIAHTVPFYGCVNWTNENFPFNDCVDKMVIWWEEGKMTAKVVESAKAILGGSKVRVDQKCKSSAQIDPTPVIVTSNTNMCAVIDGNSTTFEHQQPLQDRMFKFELTRRLDHDFGKVTKQEVKDFFRWAKDHVVEVEHEFYVKKGGAKKRPAPSDADISEPKRVRESVAQPSTSDAEASINYADRLARGHSL
notes: also called Y224F mutant; source: E. coli BL21(DE3), purified (Ni column, gel filtration on Superdex 200)
Question: Does B5 bind [1]?
Answer: binds
